How the values were obtained:
[1] = target: Influenza virus A/Panama/2007/1999 (H3N2) (Influenza A virus A/Panama/2007/1999 (H3N2)); test: ELISA on coated viral particles
[2] = target: Influenza virus A/Brisbane/59/2007 (H1N1) (Influenza A virus A/Brisbane/59/2007 (H1N1)); test: ELISA on coated viral particles
[3] = target: Influenza virus A/California/7/2009pdm (H1N1pdm) (Influenza A virus A/California/7/2009pdm (H1N1pdm)); test: ELISA on coated viral particles
[4] = target: Influenza virus A/New Caledonia/20/1999 (H1N1) (Influenza A virus A/New Caledonia/20/1999 (H1N1)); test: ELISA on coated viral particles
[5] = target: Influenza virus A/Suita/1/2009pdm (H1N1 2009 pandemic) (Influenza A virus A/Suita/1/2009pdm (H1N1pdm)); test: cell-based or functional assay
[6] = target: Influenza virus A/Panama/2007/1999 (H3N2) (Influenza A virus A/Panama/2007/1999 (H3N2)); test: cell-based or functional assay
[7] = target: Influenza virus A/Brisbane/59/2007 (H1N1) (Influenza A virus A/Brisbane/59/2007 (H1N1)); test: cell-based or functional assay
[8] = target: Influenza virus A/Indonesia/5/2005/PR8-IBCDC-RG2 (H5N1) (Influenza A virus A/Indonesia/5/2005/PR8-IBCDC-RG2 (H5N1)); test: cell-based or functional assay
[9] = target: Influenza virus A/Okuda/1957 (H2N2) (Influenza A virus A/Okuda/1957 (H2N2)); test: cell-based or functional assay

B1: Group 52 representative clone F083-328, Fab-cp3-type antibody (Fab, V domains shown)
VH: QVQLVQSGAEVKKPGSSVKLSCKASGGTLRSYALSWVRQAPGEGLEWMGGISAIFNTATYAQNVQGRVTITADESTNTFYLEVSSLRSDDTAVYYCATSGTYYVSFFDYWGQGTLVTVSS
VL: DIVLTQSPSTLSASVGDRVTLTCRASQSIGSLMAWYQQQPGKPPKLLIYRASNLETGVPSRFTGSGSGTEFALTISSLQPDDVGTYYCQHFKTFSRTFGQGTKVEIK
Binding activity (absorbance at 492 nm) [1]: 0.22 | Binding activity (absorbance at 492 nm) [2]: 2.43 | Binding activity (absorbance at 492 nm) [3]: 2.02 | Binding activity (absorbance at 492 nm) [4]: 2.66

B2: F081-007 completely humanized IgG antibody (antibody, V domains shown)
VH: QVQLQQSGAEVKKPGSSVKVSCKASGGIFRKNAISWVRQAPGQGLEWMGGISAIFGTANYAQKFQGRVTITADESSNTVYMDLSRLRSEDTAIYYCASHPTYHFDKSGYRFDSWGQGTLVTVSS
VL: QSVLTQPPSVSAAPGQKVTISCSGSSSNIGNNYVSWYQQLPGTAPKLLIYDNNKRPSGIPDRFSGSKSGTSATLGITGLQTGDEADYYCGTWDSSLSAGVFGGGTKLTVLG
Infection inhibition rate (%) [5]: 49.8% | Infection inhibition rate (%) at 0.002 µg/mL [5]: 29.3% | Infection inhibition rate (%) at 0.006 µg/mL [5]: 32% | Infection inhibition rate (%) at 0.024 µg/mL [5]: 45.3% | Infection inhibition rate (%) at 0.391 µg/mL [5]: 83.1% | Infection inhibition rate (%) at 1.6 µg/mL [5]: 96.8% | Infection inhibition rate (%) at 6.3 µg/mL [5]: 100% | Infection inhibition rate (%) at 25.0 µg/mL [5]: 100% | Infection inhibition rate (%) at 100.0 µg/mL [5]: 100% | Infection inhibition rate (%) at 200.0 µg/mL [5]: 100% | Infection inhibition rate (%) [6]: 0% | Infection inhibition rate (%) at 0.391 µg/mL [6]: 0% | Infection inhibition rate (%) at 1.6 µg/mL [6]: 0% | Infection inhibition rate (%) at 6.3 µg/mL [6]: 0% | Infection inhibition rate (%) at 25.0 µg/mL [6]: 0% | Infection inhibition rate (%) at 100.0 µg/mL [6]: 0% | Infection inhibition rate (%) at 200.0 µg/mL [6]: 0% | Infection inhibition rate (%) [7]: 36.3% | Infection inhibition rate (%) at 0.002 µg/mL [7]: 0% | Infection inhibition rate (%) at 0.006 µg/mL [7]: 9.9% | Infection inhibition rate (%) at 0.024 µg/mL [7]: 27.9% | Infection inhibition rate (%) at 0.391 µg/mL [7]: 59.2% | Infection inhibition rate (%) at 1.6 µg/mL [7]: 82.4% | Infection inhibition rate (%) at 6.3 µg/mL [7]: 90.1% | Infection inhibition rate (%) at 25.0 µg/mL [7]: 100% | Infection inhibition rate (%) at 100.0 µg/mL [7]: 100% | Infection inhibition rate (%) at 200.0 µg/mL [7]: 100% | IC50 of neutralization [8]: 0.36 µg/mL | Infection inhibition rate (%) [8]: 10.2% | Infection inhibition rate (%) at 0.024 µg/mL [8]: 7% | Infection inhibition rate (%) at 0.391 µg/mL [8]: 55.3% | Infection inhibition rate (%) at 1.6 µg/mL [8]: 85.1% | Infection inhibition rate (%) at 6.3 µg/mL [8]: 100% | Infection inhibition rate (%) at 25.0 µg/mL [8]: 100% | Infection inhibition rate (%) at 100.0 µg/mL [8]: 100% | Infection inhibition rate (%) at 200.0 µg/mL [8]: 100% | Infection inhibition rate (%) at 0.024 µg/mL [9]: 0% | Infection inhibition rate (%) at 0.391 µg/mL [9]: 37.2% | Infection inhibition rate (%) at 0.98 µg/mL [9]: 16.5% | Infection inhibition rate (%) at 1.6 µg/mL [9]: 79% | Infection inhibition rate (%) at 6.3 µg/mL [9]: 92.6% | Infection inhibition rate (%) at 25.0 µg/mL [9]: 98.2% | Infection inhibition rate (%) at 100.0 µg/mL [9]: 98.9% | Infection inhibition rate (%) at 200.0 µg/mL [9]: 98.9%

Reference: patent US20160200799A1
